# Results reported in US20260055201A1 (SHENGHE CHINA BIOPHARMACEUTICAL, published 2026).
# Read-outs that look alike come from different tables or passages of the source.
# T1: Human TNFR2 mFc (manufacturer: Kaixia, CAT: TN-HM3R2) (human, UniProt P20333 23-257)
# T1 construct: treated as one molecule; also called Human TNFR2 mFC (KaKa, CAT: TNF-HM3R2); human TNFR2 mFC protein; not shown: mFc part
# T1 sequence (looked up): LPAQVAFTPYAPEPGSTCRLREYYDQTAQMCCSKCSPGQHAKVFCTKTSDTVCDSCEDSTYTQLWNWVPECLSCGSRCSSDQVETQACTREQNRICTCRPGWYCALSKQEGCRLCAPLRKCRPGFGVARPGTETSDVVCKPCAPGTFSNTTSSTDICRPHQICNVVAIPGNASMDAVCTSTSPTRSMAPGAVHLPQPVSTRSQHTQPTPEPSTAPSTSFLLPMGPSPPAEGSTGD
# B1: TB-C1 (bispecific antibody, human IgG1, kappa)
# light: DIQMTQSPSSLSASLGDRVTISCSASQGISNYLNWYQQKPDGTVKLLIYYTSTLHSGVPSRFSGSGSGTDYTLTISSLQPEDIATYYCQQYSKLPWTFGGGTKLEIKRTVAAPSVFIFPPSDEQLKSGTASVVCLLNNFYPREAKVQWKVDNALQSGNSQESVTEQDSKDSTYSLSSTLTLSKADYEKHKVYACEVTHQGLSSPVTKSFNRGEC
# heavy: not shown
# notes: also called antibody TB-C1
# B2: TB-A (bispecific antibody, human IgG1, kappa)
# light: B1 light
# heavy: not shown
# notes: also called antibody TB-A
# B3: Positive control (anti-TNFR2; antibody sequence variable region consists of SEQ ID NO: 25) (VHH, not shown: a dimerising Fc or GST)
# VHH: EVQLVESGGGLVQPGGSLRLSCAASGSRLDYYAVAWFRQAPGKEREEVSCITYSGGSTNYAESVKGRFTISRDNSKNTLYLQMNSLRAEDTAVYYCTTEPYGSSCPLSGYDTWGQGTLVTVSS
# notes: also called positive control 2
# Assays:
# [1] = target: T2, Human 4-1BB His (manufacturer: Acro, CAT: 41B-H5258) (human, UniProt Q07011 24-186); assay: ELISA, human 4-1BB His coated at 0.2 ug/mL, anti-human IgG detection, OD450
# T2 construct: Bought protein; also called human 4-1BB protein; 4-1BB protein; not shown: His tag
# T2 sequence (Q07011 24-186 limits assumed): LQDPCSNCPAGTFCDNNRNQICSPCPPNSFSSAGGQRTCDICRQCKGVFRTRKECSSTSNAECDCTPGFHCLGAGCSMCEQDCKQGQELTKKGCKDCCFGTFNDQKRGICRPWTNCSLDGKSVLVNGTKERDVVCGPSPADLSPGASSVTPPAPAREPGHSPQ
# Experimental: The coating solution was poured off. Each well was washed with 1×PBST at 300 μL, washed 4 times with a plate washer, and patted dry on a flat paper. It was blocked with 3% skim milk powder at 300 μL/well, and incubated at 37° C. for 1 h. The blocking solution was poured off, washed 4 times with a plate washer, and patted dry on a flat paper. Negative control and positive control were set up. […] The positive control and antibody were diluted to 10 μg/mL with 3% skim milk powder as the starting concentration, and then diluted by 3-fold gradient (11 gradients in total), and a blank well was set up and only the diluent was added. It was incubated at 37° C. for 1 h at 100 μL/well. The liquid in the well was discarded, washed 4 times with a plate washer, and patted dry on a flat paper. […] It was washed 6 times with a plate washer, and patted dry on a flat paper. TMB color developing solution was added at 100 μL/well, and wrapped with aluminum foil. Color development was performed at 37° C. in the dark for 8 min. Termination solution 1M HCl was added to terminate the color development reaction at 100 μL/well. Readings were taken at 450 nm on an ELISA reader.
# [2] = target: T1, Human TNFR2 mFc (manufacturer: Kaixia, …); assay: bridging ELISA: human TNFR2 mFc coated, antibody titrated, then human 4-1BB His 0.3 ug/mL, HRP anti-His detection, OD450
# Experimental: (§1) The coating solution was poured off. Each well was washed with 1×PBST at 300 μL, washed 4 times with a plate washer, and patted dry on a flat paper. It was blocked with 3% skim milk powder at 300 μL/well, and incubated at 37° C. for 1 h. The blocking solution was poured off, washed 4 times with a plate washer, and patted dry on a flat paper. […] Starting at 50 nM, which was used as the initial concentration for 3-fold dilution, a total of 10 gradients were diluted, and a blank well was set up and only the diluent was added. It was incubated at 37° C. for 1 h at 100 μL/well. The liquid in the well was discarded, washed 4 times with a plate washer, and patted dry on a flat paper. Human 4-1BB His (manufacturer: Acro, CAT: 41B-H5258, LOT: 198-2146F1-W6) was diluted to 0.3 μg/mL, 100 μL was added to each well, and incubated at room temperature for 1 h. […] It was washed 6 times with a plate washer, and patted dry on a flat paper. TMB color developing solution was added at 100 μL/well, and wrapped with aluminum foil. Color development was performed at 37° C. in the dark for 8 min. Termination solution 1M HCl was added to terminate the color development reaction at 100 μL/well. Readings were taken at 450 nm on an ELISA reader.
# [3] = target: T3, Human 4-1BB Fc (manufacturer: Acro, CAT: 41B-H5258) (human, UniProt Q07011 24-186); assay: bridging ELISA: human 4-1BB Fc coated, antibody titrated, then human TNFR2 His 0.3 ug/mL, HRP anti-His detection, OD450
# T3 construct: not shown: Fc part
# T3 sequence (Q07011 24-186 limits assumed): as above
# Experimental: as §1, with “paper.” for “paper. Human 4-1BB His (manufacturer: Acro, CAT: 41B-H5258, LOT: 198-2146F1-W6) was diluted to 0.3 μg/mL, 100 μL was added to each well, and incubated at room temperature for 1 h.”
# [4] = target: T1, Human TNFR2 mFc (manufacturer: Kaixia, …); assay: blocking ELISA: human TNFR2 mFc coated, antibody titrated together with human TNF alpha His (blocked ligand), anti-His detection, OD450
# Experimental: (§2) The coating solution was poured off. Each well was washed with 1×PBST at 300 μL, washed 4 times with a plate washer, and patted dry on a flat paper. It was blocked with 3% skim milk powder at 300 μL/well, and incubated at 37° C. for 1 h. The blocking solution was poured off, washed 4 times with a plate washer, and patted dry on a flat paper. Negative control and positive control were set up. […] The positive control and antibody were diluted diluted to 100 nM with 3% skim milk powder as the starting concentration, and then diluted by 3-fold gradient (11 gradients in total), and a blank well was set up and only the diluent was added. […] The liquid in the well was discarded, washed 4 times with a plate washer, and patted dry on a flat paper. The anti his antibody (Abcam, Cat: ab1187) was diluted with 3% skim milk powder at 1:5000, 100 μL was added to each well, and incubated at 37° C. for 1 h. It was washed 6 times with a plate washer, and patted dry on a flat paper. TMB color developing solution was added at 100 μL/well, and wrapped with aluminum foil. Color development was performed at 37° C. in the dark for 8 min. Termination solution 1M HCl was added to terminate the color development reaction at 100 μL/well. Readings were taken at 450 nm on an ELISA reader.
# [5] = target: T1, Human TNFR2 mFc (manufacturer: Kaixia, …); assay: as above; remark: listed apart in the source
# Experimental: as §2
binder,measurement,setting,value
B1,EC50 (read off the curve),[1],~0.1 nM
same,EC50 (read off the curve),[2],~0.06 nM
B2,EC50 (read off the curve),[3],~0.6 nM
B3,IC50 (read off the curve),[4],~2 nM
same,IC50 (read off the curve),[5],~2 nM
